Results: US11029303B2, “PAH antibodies and uses thereof” (The Administrators of the Tulane Educational Fund, priority 2015, dated 2021)
Entries after “also recorded” stand apart in the source; their conditions may differ.

B1: Clone G8: scFv, amino acid sequence SEQ ID NO: 45; binds 4-methylphenanthrene most tightly (protein)
scFv: SAHAEAYLQQSGAELVRPGTSVKVSCKASGYVFTNFLIEWVKQRPGQGLEWIGVINPGNGGAAYNEKFKGKAILTADKSSSTAYMQLSSLTSDDSAVYFCARLPPSYDYDGDIDYWGQGTTVTVSSGGGGSGGGGSGGGARGGGGSDLVLTQSPASLAVALGQRATISCRASKSVTTSGYSLMHWYRQKPGQPPKLLIYPASNLESGVPARFSGSGSGTDFTLNIHPVEEEDAATYYCQHSRELPWTFGGGTKLEIKRAS
B2: Clone A10: scFv, amino acid sequence SEQ ID NO: 37; binds methylated phenanthrenes, prefers 2-methylphenanthrene (protein)
scFv: SAHAEAYLQQSGAELVKPGASVKLSCKASGYTFTSYWMHWVKQRPGQGLEWIGEINPRNGRSNYNEKFKNKATVTVDKYSNTAYMQLSSLTSDDSAVYYCTRDGGDYWGQGTTVTVSSGGGGSGGGGSGGGARGGGGSDIVLTQSHKFMSTSVGDRVSITCKASQDVGTAVAWYQQKPGQSPKLLIYWASTRHTGVPDRFTGSGSGTDFTLTISNVQSEDLADYFCQQYSSYPLTFGGGTKLEMKRAS
B3: Clone D7: scFv, amino acid sequence SEQ ID NO: 42; binds unmethylated and methylated phenanthrenes alike (protein)
scFv: SAHAEAYLQQSGAELVRPGTSVKVSCKASGYAFTKYLIEWVKQRPGQGLEWIGVINPGSGSTSYNEKFRYKAILTADTSSSTAYMQLSSLTSDDSAVYFCATIPASYRSDSLDCWGQGTTVTVSSGGGGSGGGGSGGGARGGGGSDTTVTQSHKFMSTSVGDRVSITCKASQDVGTAVAWYQQKPGQSPKLLIYWASTRHTGVPDRFTGSGSGTDFTLTISNVQSEDLADYFCQQYSSYPWTFGGGTKLEMKRAS

What was measured:
Format in all cases: binding
[1] = Competitive ELISA with purified scFv, ligand 3-MP; conditions: Phen-BSA coated plate; 5% DMSO
Description: (§1) Competitive ELISA was performed in 96 well high binding plates (Corning, Corning, N.Y.). Each well was coated with 2 μg/ml antigen at 4° C. overnight and blocked with 3% BSA. Antibody scFv was incubated in the antigen-coated well with or without soluble competitor, and the binding of scFv was accessed using anti-myc antibody (9E10) and goat-antimouse-HPR antibody (Sigma Aldrich, MO). The HRP signal was detected by adding Sureblue TMB microwell peroxidase substrate (KPL, Gaithersburg, Md.) and the reaction was stopped after 5 minutes using 1 M HCl. The incubation steps were performed at room temperature for an hour. […]
(§2) Competitive ELISA or indirect ELISA was performed in 96-well high binding plates (Corning, Corning, N.Y.). […] The HRP signal was detected by adding Sureblue TMB microwell peroxidase substrate (KPL, Gaithersburg, Md.) and the reaction was stopped after 5 min using 1N HCl. The quantified signals were measured by reading […] values from microplate photometer. […]
(§3) Since A10, D7 and G8 represent three distinct family based on the sequence alignment, the inventors next explored the binding characteristics of these three clones as models to of the antibodies present in the immune library. Purified scFv were prepared and analyzed by competitive ELISA for their abilities to recognize unsubstituted phenanthrene or methylated phenanthrenes, as shown in FIG. 55. […]

[2] = Competitive ELISA with purified scFv, ligand 4-MP; conditions: Phen-BSA coated plate
Description: as §1, §2, §3

[3] = Cross-reactivity competitive ELISA, ligand indeno-[1,2,3-cd]-pyrene
Description: (§4) Competitive ELISA was performed similar as described in Example 3, except that an anti-myc antibody (9E10) was added before applying goat-antimouse-HPR secondary antibody to detect myc-tag on scFv construct.
(§5) A real-world field sample is a complex mixture and contains a variety of PAH compounds. An understanding of the abilities of antibody to recognize various PAHs can greatly facilitate the development and application of these antibodies into field studies. In the final assessment, the inventors determined the cross-reactivity of these three scFv clones among 16 structurally related EPA priority PAH species via competitive ELISAs. First, the inventors inhibited the binding of scFv to the immobilized Phen-BSA by high concentrations (50 μM) of PAHs to determine if the scFv can recognize the ligand.

[4] = Cross-reactivity of scFv clones against EPA 16 PAHs (competitive ELISA); conditions: for cross-reactivity / inhibition by the 16 EPA PAHs: 50 μM PAH, less than 20% decrease = non-reactive
Description: as §4, §5

[5] = Competitive flow cytometry of monoclonal yeast cells; conditions: soluble Phen versus 2-MePhen
Description: For flow cytometry, the yeast library was incubated in growth medium SD-CAA at 30° C. overnight for activation. The next day, activated yeast cells were diluted in induction medium SG/R-CAA at OD600=0.5, and cultured again at 30° C. for 16 hrs. After induction, 10^7 induced yeast cells (OD600=0.5) were washed twice with 0.5 ml wash buffer I (0.5% BSA supplemented with 2 mM EDTA), and once with 0.5 ml wash buffer II (0.5% BSA). Yeast cells were first incubated with 50 μl competitor (phenanthrene or 2-methylphenanthrene, 200 μM in PBS containing 1% DMSO) for 30 min with rotation at 25° C. An additional aliquot (50 μl) of biotinylated protein-conjugate (BSA-biotin, phen-BSA-biotin, or 2mp-BSA-biotin at concentrations between 1 and 100 nM) containing 2 μg/ml anti-myc antibody 9E10 was then added and the cells were incubated for another 30 min. Yeast cells were washed 3 times with wash buffer II and stained with 4 μg/ml goat-antimouse-PE (Life Technologies, Grand Island, N.Y.) and 10 μg/ml streptavidin-Alexa633 (Life Technologies, Grand Island, N.Y.) in the dark room at 4° C. for an hour. The stained yeast cells were washed three times with wash buffer II and resuspended in 1 ml PBS for flow-cytometry analysis. The selected yeast population was sorted into 2 ml pre-warmed YPD medium, and incubated at 30° C. without shaking for 30 min before transferring into 30° C. shaker for two days. The sorted pool was analyzed again by flow cytometry using the same staining procedure. […]
Yeast cells collected after 2nd sort were spread onto agar plates at various dilution level to obtain isolated single colonies. […] A total of 184 individual clones sorted from Pool 1 were picked and analyzed for their binding to Phen-BSA-Biotin in the presence of soluble Phen or 2-MePhen.

[6] = Competitive ELISA with purified scFv, ligand phenanthrene; conditions: Phen-BSA coated plate; 5% DMSO
Description: as §1, §2, §3

[7] = Competitive ELISA with purified scFv, ligand 2-MP; conditions: Phen-BSA coated plate; 5% DMSO; read-out: affinity (IC50)
Description: as §1, §2, §3

[8] = Competitive ELISA with purified scFv, ligand 9-MP; conditions: Phen-BSA coated plate; 5% DMSO
Description: as §1, §2, §3

[9] = Cross-reactivity competitive ELISA, ligand fluoranthene; conditions: ligand 200 μM to 0.091 μM; read-out: affinity (IC50)
Description: as §4, §5

[10] = Cross-reactivity competitive ELISA, ligand pyrene; conditions: ligand 200 μM to 0.091 μM; read-out: affinity (IC50)
Description: as §4, §5

[11] = Competitive ELISA with D7 in artificial seawater (ONR7a) and crude oil
Description: FIG. 74 is (A) a graph showing a comparison of competitive ELISA for phenanthrene, an abundant PAH in crude oil, in phosphate-buffered saline (ionic strength of serum) and ONR7a, an artificial environmental matrix that mimics seawater. The limit of detection of phenanthrene in this matrix is ˜1 μM. Compared with two buffer PBS and ONR7A (article seawater), the IC50s of two curves were no different than 2 fold.
FIG. 77 is a bar graph showing that the D7 antibody can detect the model PAH, phenanthrene in a background of crude oil (4 and 0.8 mL/L). At both concentrations of crude oil, the presence of 500 μM phenanthrene decreased the absorbance in the immunoassay by 30% (*, p<0.05).
The D7 antibody can detect phenanthrene in the presence of crude oil at concentrations similar to those found in oil spills (0.8-4 mL per liter of seawater). At both concentrations tested (0.8 and 4 mL crude oil/L of synthetic seawater), the D7 antibody was able to detect phenanthrene, as shown by the 30% decrease in absorbance in the competitive ELISA. This will form the basis for an ELISA to determine the measurement and degradation of PAHs in crude oil. (see FIG. 77).

| Molecule | IC50 [1] [µM] | IC50 [2] [µM] | affinity ([2]; 5% DMSO) | recognition of indeno-[1,2,3-cd]-pyrene [3] | cross-reactivity / inhibition by the 16 EPA PAHs [4] | inhibition of binding to Phen-BSA-Biotin by soluble competitors [5] | recognition of parent phenanthrene [6] | IC50 [7] [µM] | recognition of 9-MP [8] | cross-reactivity / inhibition by the 16 EPA PAHs ([4]; listed as A10) | IC50 [9] [µM] | IC50 ([3]; ligand 200 μM to 0.091 μM, read-out: affinity (IC50)) [µM] | IC50 [10] [µM] | sensitivity for fluoranthene, indeno-[1,2,3-cd]-pyrene and pyrene relative to phenanthrenes [4] | decrease in absorbance in the immunoassay ([11]; 500 μM phenanthrene, crude oil 4 and 0.8 mL/L) [%] | activity in artificial seawater matrix (ONR7a) ([11]; ONR7a) |
| --- | --- | --- | --- | --- | --- | --- | --- | --- | --- | --- | --- | --- | --- | --- | --- | --- |
| B1 | 14.4 | 0.94 | sub-micromolar | did not recognize | some cross-reactivity to other PAHs | unable to distinguish between the 2 soluble competitors |  |  |  |  |  |  |  |  |  |  |
| B2 |  |  |  |  |  | some tendency for the 2-MePhen over unsubstituted Phen | did not recognized | 8.28 | did not recognized | None of the 16 PAHs showed significant inhibition; also recorded: no cross-reactivity to other PAHs |  |  |  |  |  |  |
| B3 |  |  |  |  |  | unable to distinguish between the 2 soluble competitors |  |  |  |  | 1.5 | 1.5 | 1.5 | about 4 fold | 30 | active |
